Results on one molecule are retold here after patent CN114409779A.

In the test the target is 重组人NogoA蛋白 (recombinant human NogoA protein) (human) (UniProt Q9NQC3). The test can be described thus: BLI (Gator label-free analyser), antibody captured on Protein A probe, NogoA at 10, 5, 2.5 and 0 ug/mL.
Sequence of UniProt Q9NQC3 (Q9NQC3 1055-1120 limits assumed): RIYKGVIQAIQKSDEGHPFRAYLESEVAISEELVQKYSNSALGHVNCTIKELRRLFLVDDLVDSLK

B1: NogoAD1-1 (antibody, part only; not given: Light chain variable domain, V domains shown, part only)
VH: EVLLVESQQTPVKPGGSLKASCAGSQSVFLTAAYSWVRPTPEKLLEWVATISYGSPNTYYPDSVKGRYNEKFKGKATLTVETSSSTAYMQLSSLTSEDTAVYFCARRSYGEDSWFSYWGQGTLVTVSS
B1: the equilibrium dissociation constant (Kd) came to 8.2 pM.
